Molecular target: T1, Soluble hen egg-white lysozyme proteins (HEL; Seikagaku Corp. code No. 100940) (hen, UniProt P00698 19-147)
T1 construct: Bought protein, soluble; also called HEL proteins; target substances
Test: sandwich on gold/glass slide: immobilised fusion, 500 nM HEL, FITC-labelled anti-HEL polyclonal antibodies, fluorescence microscopy
Experimental: 200 μl of 500 nM HEL proteins is added dropwise as target substances to the neighborhood of the boundary region between the gold layer and the glass layer of the slide glass completely washed in the step (ii). The slide glass is covered with a cover glass. After reaction at room temperature for 30 minutes, the slide glass is washed with each buffer. Next, 1 ml of 100 nM FITC-labeled HEL polyclonal antibodies was spotted thereonto and incubated in a moisture chamber. Then, the slide glass is washed with each buffer. FITC fluorescence at 520 nm is observed with a fluorescence microscope.

T1 sequence (P00698 19-147): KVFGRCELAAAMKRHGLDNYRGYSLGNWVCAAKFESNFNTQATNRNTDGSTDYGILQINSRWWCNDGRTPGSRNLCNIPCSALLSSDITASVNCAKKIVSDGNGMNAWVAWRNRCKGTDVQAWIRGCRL

binding result: binds
B1: fusion protein of HEL-binding scFv (HyHEL10), Au-binding peptide region and SiO2-binding peptide region (scFv)
scFv: DIVLTQSPATLSVTPGNSVSLSCRASQSIGNNLHWYQQKSHESPRLLIKYASQSISGIPSRFSGSGSGTDFTLSINSVETEDFGMYFCQQSNSWPYTFGGGTKLEITAGGGGSGGGGSGGGGSDIQLQESGPSLVKPSQTLSLTCSVTGDSITSDYWSWIRKFPGNRLEYMGYVSYSGSTYYNPSLKSRISITRDTSKNQYYLDLNSVTTEDTATYYCANWDGDYWGQGTLVTVSAAGGGGSGGGGSGGGGSMHGKTQATSGTIQSMHGKTQATSGTIQSMHGKTQATSGTIQSMHSASGSGGGGSGGGSGGGSEGGGSEGGGSGGGSGSIPMHVHHKHPHVIPMHVHHKHPHV
notes: Secreted from E. coli by the pelB signal of pET-20b(+); In the assays it stood immobilised on a gold/glass substrate; also called target substance capturing body; sc-Fv-HyHEL10 fusion; not shown: His tag used for metal chelate purification (pET-20b(+) vector)
